Assay: Thioflavin T (ThT) in vitro fibrillogenesis assay
Assay type: physicochemical
Details: 0.1 M Tris pH 7.4, incubated for different times
Experimental: ThT binds specifically to β-sheet structure and this binding produces a shift in its emission spectrum and a fluorescent enhancement proportional to the amount of amyloid formed. Following the incubation period, 50 mM glycine, pH 9.2, and 2 μM ThT was added to a final volume of 200 μl containing 3 μg of the immunogen or the P301L tau peptide (with or without equimolar concentration of antibodies purified from the immunized mice). Fluorescence was measured at excitation 435 nm and emission 485 nm on a SpectraMax M2 multi-detection plate reader (Molecular Devices, Sunnyvale, Calif.).

## Aβ1-42: amyloid-β control peptide used for comparison in ThT and MTT assays
  fibril formation (fibrillogenicity), Thioflavin T fluorescence: very fibrillogenic

Reference: patent publication US9777056B2, “Immunotherapy for clearing pathological tau conformers” (New York University, priority 2006, dated 2017)
